Like-named read-outs stand apart in the source and are kept apart here.
B1: M91002_G0 (designed binder)
chain: GSGMKETAAAKFERQHMDSPDLGTDDDDKAMAENLYFQGDPQFGLFSKYRTPNCRTGRGPACQMGFQPVCGSDMSTYANECTLCMKIREGGHNIKIIRNGPC
B2: M91005_D1G-Fc-01 (Fc fusion)
chain: GSGMKETAAAKFERQHMDSPDLGTDDDDKAMADIGSANSGPQFGLFSKYRTPNCRKRGGPSCQMSYNPVCGSDMSTYANECTLCMKIREGGHNIKIIRNGPCGASAAAGGGGSDKTHTCPPCPAPELLGGPSVFLFPPKPKDTLMISRTPEVTCVVVDVSHEPEVKFNWYVDGVEVHNAKTKPREEQYNSTYRVVSVLTVLHQDWLNGKEYCKVSNKALPAPIEKTISKAKGQPREPQVYTLPPSREEMTKNQVSLTCLVGFYPSDIAVEWESNGQPENNYKTTPPVLDSDGSFFLYSKLTVDKSRWQQNVFSCSVMHEALHNHYTQKSLSLSPGK
B3: M91011 (designed binder)
chain: GSGMKETAAAKFERQHMDSPDLGTDDDDKAMADIGSANSDPQFGLFSKYRTPNCMMYKYAQCSHKSQPVCGSDMSTYANECTLCMKIREGGHNIKIIRNGPCGASAAA
B4: M91002_G2 (designed binder)
chain: GSGMKETAAAKFERQHMDSPDLGTDDDDKAMAENLYFQGDPQFGLFSKYRTPNCRTGRGPACQMGFQPVCGSDMSTYANECTLCMKIREGGHNIKIIRNGPCGG
B5: M91002_G3 (designed binder)
chain: GSGMKETAAAKFERQHMDSPDLGTDDDDKAMAENLYFQGDPQFGLFSKYRTPNCRTGRGPACQMGFQPVCGSDMSTYANECTLCMKIREGGHNIKIIRNGPCGGG
B6: M91005 (designed binder)
chain: GSGMKETAAAKFERQHMDSPDLGTDDDDKAMADIGSANSDPQFGLFSKYRTPNCRKRGGPSCQMSYNPVCGSDMSTYANECTLCMKIREGGHNIKIIRNGPCGASAAA

Legend:
[1] = molecular target: T1, active hMMP-9(cat)_His6 (UniProt P14780 107-449); experiment: enzyme inhibition; substrate peptide
T1 sequence (P14780 107-449): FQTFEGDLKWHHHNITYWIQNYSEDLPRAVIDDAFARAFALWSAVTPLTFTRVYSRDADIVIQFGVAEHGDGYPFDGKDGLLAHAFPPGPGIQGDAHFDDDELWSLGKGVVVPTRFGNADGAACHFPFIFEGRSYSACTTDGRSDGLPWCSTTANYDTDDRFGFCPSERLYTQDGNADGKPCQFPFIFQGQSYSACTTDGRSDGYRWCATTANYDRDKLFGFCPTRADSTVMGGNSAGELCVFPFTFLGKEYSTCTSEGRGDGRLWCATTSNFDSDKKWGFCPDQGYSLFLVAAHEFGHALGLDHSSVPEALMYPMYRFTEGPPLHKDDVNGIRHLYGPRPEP

[2] = molecular target: T1, active hMMP-9(cat)_His6; experiment: enzyme inhibition; substrate peptide; remark: listed apart in the source
[3] = molecular target: S413Q; experiment: substrate peptide enzyme inhibition
[4] = molecular target: P421A; experiment: substrate peptide enzyme inhibition
[5] = molecular target: T109F; experiment: substrate peptide degradation inhibition
[6] = molecular target: E111P; experiment: substrate peptide degradation inhibition
[7] = molecular target: G112R; experiment: substrate peptide degradation inhibition
[8] = molecular target: G186A; experiment: substrate peptide degradation inhibition
[9] = molecular target: I198V; experiment: substrate peptide degradation inhibition
[10] = molecular target: D113K; experiment: substrate peptide degradation inhibition
[11] = molecular target: Q108N; experiment: substrate peptide degradation inhibition
[12] = molecular target: P180A; experiment: substrate peptide degradation inhibition
[13] = molecular target: D410E; experiment: substrate peptide enzyme inhibition
[14] = molecular target: L418A; experiment: substrate peptide enzyme inhibition
[15] = molecular target: L114P; experiment: substrate peptide degradation inhibition
[16] = molecular target: P196T; experiment: substrate peptide degradation inhibition

Binder	IC50 [1]	IC50 [3]	IC50 [4]	IC50 [5]	IC50 [6]	IC50 [7]	IC50 [8]	IC50 [9]	IC50 [10]	IC50 [11]	IC50 [12]	also measured
B1	3.6 nM	–	–	–	–	–	–	–	–	–	–	–
B2	–	–	–	–	–	–	–	–	–	–	–	IC50 [2]: 4.3 nM
B3	–	28 nM	8.7 nM	15 nM	23 nM	15 nM	16 nM	16 nM	21 nM	21 nM	24 nM	–
B4	3.5 nM	–	–	–	–	–	–	–	–	–	–	–
B5	3.5 nM	–	–	–	–	–	–	–	–	–	–	–
B6	–	30 nM	23 nM	15 nM	31 nM	19 nM	15 nM	16 nM	21 nM	20 nM	25 nM	IC50 [13]: 22 nM; IC50 [14]: 9.3 nM; IC50 [15]: 22 nM; IC50 [16]: 18 nM

Reference: US20200231654A1 (published 2020)
